This note sets out measurements from patent US20170097333A1 (Merck Sharp & Dohme, published 2017).

Test [1] concerns the target human CD3 (human) (UniProt P07766). The experiment in a line: FACS staining of Jurkat clone G10 (passage P4), relative to control antibody mIgG1-pacblue.
For test [2] the target is unchanged. The experiment in a line: FACS staining of Jurkat clone G10, relative to control antibody mIgG1 pacblue.
Test [3] has the same target. The experiment in a line: FACS staining of Jurkat clone G10 (passage P6), relative to control antibody mIgG1-pacblue.
For test [4] the target is unchanged. The experiment in a line: FACS staining of Jurkat clone G10 (passage P14), relative to control antibody mIgG1-pacblue.
The target is the same in test [5]. The experiment in a line: FACS staining of Jurkat clone G10 (passage P12), relative to control antibody mIgG1-pacblue.
Test [6] shares this target. The experiment in a line: FACS staining of Jurkat clone H3, relative to control antibody mIgG1 pacblue.
Test [7] has the same target. The experiment in a line: FACS staining of Jurkat clone F5, relative to control antibody mIgG1 pacblue.
Test [8] has the same target. The experiment in a line: FACS staining of Jurkat clone F11, relative to control antibody mIgG1 pacblue.
Test [9] shares this target. The experiment in a line: FACS staining of Jurkat clone G10 (passage P17), relative to control antibody mIgG1-pacblue.
The target is the same in test [10]. The experiment in a line: FACS staining of Jurkat clone G3, relative to control antibody mIgG1 pacblue.
Test [11] has the same target. The experiment in a line: FACS staining of Jurkat clone D7, relative to control antibody mIgG1 pacblue.
For test [12] the target is unchanged. The experiment in a line: FACS staining of Jurkat clone E6, relative to control antibody mIgG1 pacblue.
For test [13] the target is unchanged. The experiment in a line: FACS staining of Jurkat clone A1, relative to control antibody mIgG1 pacblue.
For test [14] the target is unchanged. The experiment in a line: FACS staining of Jurkat clone G10 (passage ~P3), relative to control antibody mIgG1-pacblue.
The target in test [15] is T1, human LAG3 (human, UniProt P18627 23-525).
T1 construct: Expressed from a transgene on Jurkat cells
T1 sequence: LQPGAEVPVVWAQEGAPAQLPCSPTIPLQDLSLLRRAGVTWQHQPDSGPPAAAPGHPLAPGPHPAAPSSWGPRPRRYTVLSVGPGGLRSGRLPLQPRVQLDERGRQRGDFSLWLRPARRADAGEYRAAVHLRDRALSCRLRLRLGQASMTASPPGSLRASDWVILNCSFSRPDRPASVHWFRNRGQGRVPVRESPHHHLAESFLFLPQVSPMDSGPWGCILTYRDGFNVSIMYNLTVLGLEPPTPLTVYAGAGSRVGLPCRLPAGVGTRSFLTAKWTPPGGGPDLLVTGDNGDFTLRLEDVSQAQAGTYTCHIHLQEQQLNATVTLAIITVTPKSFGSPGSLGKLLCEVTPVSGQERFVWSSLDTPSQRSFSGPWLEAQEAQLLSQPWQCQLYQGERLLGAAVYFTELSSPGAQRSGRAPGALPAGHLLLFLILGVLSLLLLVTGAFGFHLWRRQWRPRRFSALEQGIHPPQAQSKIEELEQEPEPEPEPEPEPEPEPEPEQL
The experiment in a line: FACS staining of human LAG3 Jurkat clone G10 (passage P17), relative to control antibody Herceptin-DyLight 650.

Test [16] deals with T1, human LAG3. The experiment in a line: FACS staining of human LAG3 Jurkat clone G10 (passage P14), relative to control antibody Herceptin-DyLight 650.
Test [17] has as its target T1, human LAG3. The experiment in a line: FACS staining of human LAG3 Jurkat clone G10 (passage P12), relative to control antibody Herceptin-DyLight 650.
Test [18] addresses T1, human LAG3. The experiment in a line: FACS staining of human LAG3 Jurkat clone G10 (passage ~P3), relative to control antibody Herceptin-DyLight 650.
Test [19] deals with T1, human LAG3. The experiment in a line: FACS staining of human LAG3 Jurkat clone G10 (passage P6), relative to control antibody Herceptin-DyLight 650.
Test [20] addresses T1, human LAG3. The experiment in a line: FACS staining of human LAG3 Jurkat clone G10 (passage P4), relative to control antibody Herceptin-DyLight 650.

human CD3 (human), sequence (P07766 23-207): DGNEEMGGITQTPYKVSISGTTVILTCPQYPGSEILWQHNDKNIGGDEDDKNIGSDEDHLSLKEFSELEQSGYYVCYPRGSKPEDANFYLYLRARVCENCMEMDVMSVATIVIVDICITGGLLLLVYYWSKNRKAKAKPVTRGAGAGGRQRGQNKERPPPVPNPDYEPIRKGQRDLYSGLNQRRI

As to “maHuCD3 pacblue (mouse anti-human CD3E antibody Clone SP34-2)”, the CD3 expression (Fold Change) in the test with human CD3 (human) [1] was 7.2 fold; with human CD3 (human) [2] it was 8.4 fold; with human CD3 (human) [3], 8 fold; with human CD3 (human) [4], 6.9 fold; with human CD3 (human) [5], 6.4 fold; with human CD3 (human) [6], 5 fold. Moreover, the CD3 expression (Fold Change) came to 7.5 fold with human CD3 (human) [7]; 3.9 fold in the test with human CD3 (human) [8]; 4.7 fold with human CD3 (human) [9]; 5.3 fold in the test with human CD3 (human) [10]; 3.4 fold in the test with human CD3 (human) [11]; 8.5 fold with human CD3 (human) [12]. For the same molecule, the CD3 expression (Fold Change) with human CD3 (human) [13] was determined as 3.5 fold; in the test with human CD3 (human) [14], 10.9 fold.

B1: Ab6: humanized anti-human LAG3 VH6 N55D/VL3, IgG4 S228P/Kappa (antibody, V domains shown)
VH: QMQLVQSGPEVKKPGTSVKVSCKASGYTFTDYNVDWVRQARGQRLEWIGDINPNDGGTIYAQKFQERVTITVDKSTSTAYMELSSLRSEDTAVYYCARNYRWFGAMDHWGQGTTVTVSS
VL: DIVMTQTPLSLSVTPGQPASISCKASQSLDYEGDSDMNWYLQKPGQPPQLLIYGASNLESGVPDRFSGSGSGTDFTLKISRVEAEDVGVYYCQQSTEDPRTFGGGTKVEIKR
notes: also called 51AHH; light chain 45AGX
In the case of B1, the “Lag3 Expression (Fold Change)” value is 7.3 fold in the test with human LAG3 [15]; 7.2 fold in the test with human LAG3 [16]; 7.3 fold in the test with human LAG3 [17]; 6.1 fold with human LAG3 [18]; 2 fold with human LAG3 [19]; 5.6 fold in the test with human LAG3 [20].
